The assay deals with T1, adenylate cyclase-coupled PTH receptors (Rattus norvegicus, UniProt P25961).
T1 construct: 96-well tissue culture plate containing the rat osteogenic sarcoma cells; endogenous in cells; host or cells: rat osteogenic sarcoma cells (obtained by the methods of Partridge et al. 1981 and Majeska et al. 1980)
T1 sequence (P25961 27-591): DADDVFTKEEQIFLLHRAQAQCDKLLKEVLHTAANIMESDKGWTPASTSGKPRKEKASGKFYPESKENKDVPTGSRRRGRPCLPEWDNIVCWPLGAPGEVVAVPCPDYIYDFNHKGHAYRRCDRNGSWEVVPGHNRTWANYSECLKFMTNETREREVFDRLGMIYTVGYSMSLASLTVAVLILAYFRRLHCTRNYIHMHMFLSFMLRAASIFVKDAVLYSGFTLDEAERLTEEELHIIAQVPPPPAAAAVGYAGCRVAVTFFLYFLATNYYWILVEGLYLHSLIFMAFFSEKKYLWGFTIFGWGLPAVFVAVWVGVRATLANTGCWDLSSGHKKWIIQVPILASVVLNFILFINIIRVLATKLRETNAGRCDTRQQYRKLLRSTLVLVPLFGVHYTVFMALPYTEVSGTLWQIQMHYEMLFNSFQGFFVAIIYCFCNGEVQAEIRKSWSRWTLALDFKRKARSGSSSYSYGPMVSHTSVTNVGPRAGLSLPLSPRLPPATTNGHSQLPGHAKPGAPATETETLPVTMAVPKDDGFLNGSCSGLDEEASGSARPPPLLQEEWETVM
Put plainly: PTH bioassay: cAMP generation in rat osteogenic sarcoma cell culture, cAMP by radioimmunoassay. Particulars: for bioactivity (cAMP generation): standards of the peptide alone, FIG. 3; for cell culture response, human versus bovine bioactive PTH: hPTH^1-34 compared with bPTH^1-34, FIG. 2; for suppression of cAMP generation by serum in the bioassay medium: FIG. 5. In kind it is cell-based. The method, then: Rat osteogenic sarcoma cells are maintained in culture in Dulbecco's modified Eagle medium ("DMEM"), disclosed in R. Dulbecco, VIROLOGY, 8: 396 (1959), J. Smith, et al., VIROLOGY, 12: 185-196 (1960), Tissue Culture Standards Committee, IN VITRO, 6(2): 93 and available from Gibco, Grand Island, N.Y., containing 1% fetal calf serum, 9% heat-inactivated horse serum, 100 units/ml of penecilin G and 100 μg/ml streptomycin sulfate in sodium sulfate and normal saline solution, available as a concentrate from Gibco, supra. Cells are maintained in this medium in a humidified atmosphere of 5% carbon dioxide and 95% air at 37° C. This rat osteogenic sarcoma cell culture can be obtained according to the methods set forth in N. Partridge, et al., "Functional Properties Of Hormonally Responsive Cultured Normal And Malignant Rat Ostoblastic Cells," ENDOCRINOLOGY, 108: 213-219 (1981), which is incorporated in its entirety herein by reference thereto. This method of obtaining the cell culture is further described in R. Majeska, et al., "Parathyroid Hormone--Responsive Clonal Cell Lines From Rat Osteosarcoma," ENDOCRINOLOGY, 107: 1494-1503 (1980) and R. Majeska, "Maintenance Of Parathyroid Hormone Response in Clonal Rat Osteosarcoma Cell Lines," EXP. CELL RES., 111: 465 (1978), also incorporated in their entirety herein by reference thereto.
Cells are subcultured from confluent monolayers by removing the culture medium, rinsing the cell layer with Dulbecco's phosphate buffered saline, 0.2 g/l KCl, 0.2 g/l KH2 PO4, […], and Na2 HPO4.7H2 O and available from Gibco, supra, and adding trypsin/EDTA, 0.5 g trypsin (1:250) and 0.2 g EDTA-4Na/l Hank's balanced salt solution without CaCl2, MGCL2.6H2 O and MgSO4.7H2 O and available from Gibco, supra, to cover the cell layer. After 1 minute at 20°-25° C., the trypsin/EDTA is removed and the cells are incubated for 2-3 minutes at 37° C. The cells are resuspended in DMEM and one-fifth to one-tenth of the cells are added to a culture flask of equal size.
For use in the bioassay of PTH, the above cell suspension is diluted with 4 volumes of DMEM and 0.1 ml of the suspension is pipetted into each well of a 96-well tissue culture plate available from Becton Dickinson Labware, Oxnard, Calif. The cells are cultured in the same atmosphere as above and are ready for use in the bioassay in 24-28 hours.
15. The dried eluates are dissolved in 0.6 ml of bioassay medium at 20°-25° C., said bioassay medium consisting of 0.1% glucose, 1% BSA, 1 mM methylisobutylxanthine, and 0.005% phenol red in Dulbecco's phosphate buffer saline (pH 7.3 or within range of about 7-7.5).
To perform the bioassay of PTH, the medium is removed from all wells of the 96-well tissue culture plate containing the rat osteogenic sarcoma cells by inversion of the plate and blotting of any remaining drops of medium. The plate is replaced upright and 100 μl of the redissolved N-terminal affinity column eluates are added to each of 4 wells of the plate. The plate is incubated at 20°-25° C. for 30 minutes. At this time, the plate is inverted and blotted to remove all remaining medium, replaced upright and placed on ice.
Each well is washed 3 times by addition of 300 μl of ice cold 0.85% saline followed by inversion and […]. After the third saline wash, 200 μl of ice cold 95% ethyl alcohol containing 0.02M HCl (EtOH/HCl) is added to each well and the plate is incubated at -20° C. for 16-24 hours in order to extract the cAMP from the cells. At the end of this extraction, the EtOH/HCl is removed from each well with a pipet and rinsed with an additional 200 μl of EtOH/HCl. The rinse is combined with the original extract and the solution is dried. An appropriate device for drying the EtOH/HCl samples is a Speed-Vac Concentrator/Evaporator, available from Savant Instruments, Inc., Hicksville, N.Y. The amount of cAMP extracted from the cell layer in each well is quantitated using a radioimmunoassay for cAMP. […]

“Also recorded” adds a separate entry of the source.

Regarding (norleucine^8,18)bPTH^3-34 amide, the “bioactivity (cAMP generation)” value is reported as “virtual absence of bioactivity”. For the same molecule, the “antagonism of bPTH^1-84 (inhibition of cAMP generation)” value (bPTH^1-84 added to the standards, FIG. 4) is on record as “very strong antagonist”. Also, for the setting “listed as hPTH^3-34 amide”, the “bioactivity (cAMP generation)” value is “not bioactive”.

On to “bPTH^1-34: bovine parathyroid hormone fragment 1-34”, for which the “cell culture response, human versus bovine bioactive PTH” value is on record as “respond similarly; also recorded: very close correlation of response”.

“hPTH^1-34: human parathyroid hormone fragment 1-34, available from Peninsula Laboratories”: the “cell culture response, human versus bovine bioactive PTH” value is “respond similarly; also recorded: very close correlation of response”.

For “hPTH^37-84: human parathyroid hormone fragment 37-84 (LGAPLAPRDAGSQRPRKKEDNVLVESHEKSLGEADKADVNVLTKAKSQ; Parathyroid hormone; UniProt P01270 68-115, looked up, fragment)”, the “bioactivity (cAMP generation)” value is “not bioactive; also recorded: virtual absence of bioactivity”.

For “hPTH^65-84: human parathyroid hormone fragment 65-84 (KSLGEADKADVNVLTKAKSQ; Parathyroid hormone; UniProt P01270 96-115, looked up, fragment)”, the “bioactivity (cAMP generation)” value is reported as “not bioactive; also recorded: virtual absence of bioactivity”.

B1: PTH^1-84: parathyroid hormone 1-84 standards of the bioassay (bovine PTH 1-84 standard) (protein, UniProt P01268 32-115, looked up)
Parathyroid hormone: AVSEIQFMHNLGKHLSSMERVEWLRKKLQDVHNFVALGASIAYRDGSSQRPRKKEDNVLVESHQKSLGEADKADVDVLIKAKPQ
modifications: Parathyroid hormone
Take B1: the “suppression of cAMP generation by serum in the bioassay medium” value runs as follows: (10% serum (fetal calf serum) in bioassay medium) 50 fold; (50% serum (human serum) in bioassay medium) 100 fold.
